Target: Rabbit muscle F-actin (rabbit) (UniProt P68135)
Experiment: co-sedimentation

stoichiometry N (cofilin/actin): 1.16
Substance: Recombinant human cofilin (from UniProt P23528 1-166) (natural protein)
